Laboratory results taken from IntAct's records for PubMed 20935625.

B1: Dynamin-1 (Homo sapiens), Q05193-5 (parent)
chain: MGNRGMEDLIPLVNRLQDAFSAIGQNADLDLPQIAVVGGQSAGKSSVLENFVGRDFLPRGSGIVTRRPLVLQLVNATTEYAEFLHCKGKKFTDFEEVRLEIEAETDRVTGTNKGISPVPINLRVYSPHVLNLTLVDLPGMTKVPVGDQPPDIEFQIRDMLMQFVTKENCLILAVSPANSDLANSDALKVAKEVDPQGQRTIGVITKLDLMDEGTDARDVLENKLLPLRRGYIGVVNRSQKDIDGKKDITAALAAERKFFLSHPSYRHLADRMGTPYLQKVLNQQLTNHIRDTLPGLRNKLQSQLLSIEKEVEEYKNFRPDDPARKTKALLQMVQQFAVDFEKRIEGSGDQIDTYELSGGARINRIFHERFPFELVKMEFDEKELRREISYAIKNIHGIRTGLFTPDLAFEATVKKQVQKLKEPSIKCVDMVVSELTATIRKCSEKLQQYPRLREEMERIVTTHIREREGRTKEQVMLLIDIELAYMNTNHEDFIGFANAQQRSNQMNKKKTSGNQDEILVIRKGWLTINNIGIMKGGSKEYWFVLTAENLSWYKDDEEKEKKYMLSVDNLKLRDVEKGFMSSKHIFALFNTEQRNVYKDYRQLELACETQEEVDSWKASFLRAGVYPERVGDKEKASETEENGSDSFMHSMDPQLERQVETIRNLVDSYMAIVNKTVRDLMPKTIMHLMINNTKEFIFSELLANLYSCGDQNTLMEESAEQAQRRDEMLRMYHALKEALSIIGDINTTTVSTPMPPPVDDSWLQVQSVPAGRRSPTSSPTPQRRAPAVPPARPGSRGPAPGPPPAGSALGGAPPVPSRPGASPDPFGPPPQVPSRPNRAPPGVPRITISDP

Variants of: B1
Conditions: with acts_rabit ACTA1, P68135
In the case of E434K, the “effect of a mutation on the interaction” value is reported as “increasing interaction”.

Variants of: B1
Conditions: with acts_rabit ACTA1, P68135
Remark: another data set of the same source
In the case of K414E, the “effect of a mutation on the interaction” value is reported as “decreasing interaction”.
K421E was tested, and the “effect of a mutation on the interaction” value was “decreasing interaction”.
K415E was tested, and the “effect of a mutation on the interaction” value was “decreasing interaction”.
In the case of K426E, the “effect of a mutation on the interaction” value is reported as “decreasing interaction”.
With K419E the “effect of a mutation on the interaction” value was “decreasing interaction”.

Variants of: B1
Conditions: with acts_rabit ACTA1, P68135
Remark: another data set of the same source
With K414A the “effect of a mutation on the interaction” value was “decreasing interaction”.
K421A was tested, and the “effect of a mutation on the interaction” value was “decreasing interaction”.
K419A was tested, and the “effect of a mutation on the interaction” value was “decreasing interaction”.
K415A was tested, and the “effect of a mutation on the interaction” value was “decreasing interaction”.
For K426A, the “effect of a mutation on the interaction” value was “decreasing interaction”.
